# Earlier results in paper PMC4705221.
# Read-outs that look alike come from different tables or passages of the source.
# Tests used:
# MK2 (Homo sapiens) [1] = target: MK2 (Homo sapiens) (UniProt P49137)
# MK2 (Homo sapiens) [2] = target: MK2 (Homo sapiens) (UniProt P49137); remark: listed apart in the source
# Sequence of UniProt P49137 (P49137 whole entry): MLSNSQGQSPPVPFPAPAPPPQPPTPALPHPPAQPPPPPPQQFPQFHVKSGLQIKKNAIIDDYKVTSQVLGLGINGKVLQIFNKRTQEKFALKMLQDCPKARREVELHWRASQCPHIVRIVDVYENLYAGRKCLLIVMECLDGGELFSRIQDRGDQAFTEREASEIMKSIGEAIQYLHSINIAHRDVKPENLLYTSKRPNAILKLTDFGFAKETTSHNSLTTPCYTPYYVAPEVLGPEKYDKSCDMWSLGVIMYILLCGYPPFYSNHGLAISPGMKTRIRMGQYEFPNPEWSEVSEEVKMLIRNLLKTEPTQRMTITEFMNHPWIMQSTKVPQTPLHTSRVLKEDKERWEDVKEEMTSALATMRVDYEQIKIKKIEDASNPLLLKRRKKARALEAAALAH
substance,measurement,setting,value
p38α (from UniProt Q16539),Kd,MK2 (Homo sapiens) [1],2.5 nM
same,Kd,MK2 (Homo sapiens) [2],60 nM
